Measured values taken from publication PMC3439905.

Target: human alpha-thrombin (CD samples) (Homo sapiens, UniProt P00734;P00734 328-363;364-622)
Assay: CD thermal denaturation at 295 nm

## GGTTGGTGTGGTTGG (structured_DNA) [TBA (thrombin-binding aptamer)]
  binding result: binds
